Peptide text beside a SMILES is read from it. * marks the point of attachment. X1 = CC1(C)C(/C=C/C=C/C=C/C=C2/N(CCCCCC(=O)NCCN3C(=O)CC(*)C3=O)c3ccc4ccccc4c3C2(C)C)=[N+](CCCCS(=O)(=O)[O-])c2ccc3ccccc3c21
Assays:
[1] = Biodistribution, %ID/g estimated from tissue/organ homogenates; format: in vivo, BALB/c mice; details: BALB/c, mouse, small and large intestines, bone, skin, muscle, prostate, iv, 0.5 mg/kg; all time points; estimate; read-out: Amount in small and large intestines, bone, skin and muscle (and prostate)
Procedure: The fluorescence signals in organs and tissue were also measured in the tissue/organ homogenates and compared with the signals from the control tissue/organ homogenates (collected from control mice) mixed with known amounts of pHLIP ICG. Samples of about 100 mg of tissue were homogenized with 2.5x (about 250 µL) volumes of DMSO using BioMasher II disposable homogenizers (DiagnoCine, LLC). 30 µl of each homogenate was placed into a 384-well plate and imaged using an Odyssey IR scanner (Li-Cor Biosciences). Tissue homogenates of control mice mixed with known concentrations of pHLIP ICG were used to establish the calibration curve.

[2] = Pharmacological safety assessment on the central nervous system (FOB) in rats (GLP); format: in vivo, Sprague Dawley rats; details: single i.v. bolus 0.218, 0.248, 3.72 and 7.44 mg/kg, up to 24 h post-dose
Procedure: The objective of this GLP study performed at CRL was to evaluate the pharmacological effects of pHLIP ICG on the central nervous system following a single i.v. bolus injection in rats.
Functional observation battery (FOB) tests were performed once prior to dosing and again at 5 minutes, 3 and 24 hours post-dose and included the following assessments: palpebral closure, eye prominence, pupil size, pupillary response, lacrimation, salivation, body tone, extensor thrust, pinna reflex, tactile reflex, overall animal reactivity, auricular startle, air righting reflex, body temperature (rectal). Additional evaluations consisted of mortality and clinical observations.

[3] = tested on: human mammary epithelial cells (HMEpC); assay: Cytotoxicity, cell viability (CellTiter 96 AQueous One); format: cell-based; details: 0.125 up to 16 µM, 72 h, absorbance 490 nm, triplicate
Procedure: Human mammary epithelial cells (HMEpC) acquired from Cell Applications, Inc. were authenticated and stored according to supplier’s instructions. Cells were cultured in mammary epithelial cell growth medium provided by the manufacturer. HMEpC cells were loaded in the wells of 96-well plates (~6,000 cells per well) and incubated overnight. Increasing amounts of pHLIP ICG dissolved in cell growth medium were added to cells to give the following final concentrations of pHLIP ICG with cells: 0.125, 0.25, 0.5, 1, 2, 4, 8 and 16 μM. After 48 and 72 hours of incubation, a colorimetric reagent (CellTiter 96 AQueous One Solution Assay, Promega) was added for 2 hours followed by measuring absorbance at 490 nm to assess cell viability. All samples were prepared in triplicate and each experiment was repeated several times.

[4] = Pharmacokinetics in mice, single i.v. injection; format: in vivo, B6D2F1 mice; details: single i.v. 12.3 mg/kg
Procedure: The purpose of this study, performed at MSK, was to determine the pharmacokinetic parameters of pHLIP ICG in 3 female B6D2F1 mice following a single i.v. injection of pHLIP ICG at a dose of 12.3 mg/kg. Blood was collected in EDTA tubes at 5, 15, 30 minutes, and 1, 2, 4, 6, 8, 16, and 24 hours post-injection, followed by centrifugation to separate the plasma, and flash frozen. At time of analysis, samples were thawed, extracted, and analyzed via LC-MS as per the validated protocol using pHLIPIS.

[5] = Pharmacokinetics in Beagle dogs, single i.v. bolus injection; format: in vivo; details: male, dog, plasma, iv, mean
Procedure: The objective of this study performed at CRL was to characterize the pharmacokinetic profile of pHLIP ICG in Beagle dogs following a single i.v. injection.
Blood samples were collected at 5, 15, and 30 minutes, and 1, 2, 4, 6, 8, 12, 24, and 48 hours post-dose for pharmacokinetic evaluation. Samples were placed on crushed wet ice until centrifugation, which was carried out immediately. The samples were centrifuged as per standard procedures. An aliquot of 250 µL of the resultant plasma was separated, transferred to 2.0 mL low-bind tubes containing 1.25 mL of methanol, mixed and frozen immediately over dry ice and transferred to a freezer at -80°C. At the time of analysis, samples were thawed, extracted, and analyzed via LC-MS/MS according to the validated protocol using pHLIPIS.

[6] = Stability of pHLIP ICG formulations in solution (analytical HPLC); format: physicochemical; details: protected from light
Procedure: Stability studies were performed with pHLIP ICG formulations in PBS and PBS containing 5% DMSO or 5% Ethanol (vol/vol). The tumor targeting capability in mice is independent of formulation. Formulation of pHLIP ICG in PBS/5% Ethanol was used in PoC animal studies, and in toxicity studies on mice, rats and dogs. For the PBS/5%DMSO formulation 1 mg of the lyophilized powder of pHLIP ICG was dissolved in 75 µl of DMSO (to make 3.2 mM solution), then 10 µl of 3.2 mM stock was mixed with 190 µl PBS to make a 0.16 mM solution of pHLIP ICG (5% DMSO). For the PBS/5%Ethanol formulation, the lyophilized powder of pHLIP ICG was dissolved at a concentration of 1.6 mg/ml in PBS/5% Ethanol solution. Finally, the formulation selected for human use was prepared by dissolving the lyophilized powder of pHLIP ICG at a concentration of 0.8 mg/ml in PBS. All formulations were kept at room temperature and protected from light. The aliquots were taken at 0.5 or 1, 3, 6, 24, 48 and 72 hours (102 hrs for pHLIP ICG dissolved in PBS) for analytical HPLC analysis using a Zorbax SB-C18 column (4.6 x 250 mm, 5 µm) with a binary solvent system using a […] water and acetonitrile gradient with 0.05% TFA over 25 min. […] Formulation of pHLIP ICG in PBS was stable in solution for 4 days kept at RT.

[7] = cited from earlier work
From the text: Since pHLIP peptides offer a unique approach to the targeting of a spectrum of tumor subtypes, we were motivated to develop a fluorescent pHLIP candidate in order to improve the surgical resection of tumors guided by fluorescence. After testing a variety of fluorescent dyes with pHLIP peptides, we chose a widely used clinical fluorescent dye, indocyanine green (ICG). In addition to its long record of safety, ICG was chosen to couple to pHLIP peptide as a clinical imaging candidate for two main reasons: first, the fluorescence of pHLIP ICG is enhanced about 20 times when pHLIP tethers ICG t ...

For `CC(C)C[C@H](NC(=O)[C@H](Cc1ccc(O)cc1)NC(=O)[C@H](C)NC(=O)[C@H](CCCNC(=N)N)NC(=O)[C@H](Cc1c[nH]c2ccccc12)NC(=O)[C@@H]1CCCN1C(=O)[C@H](CC(N)=O)NC(=O)[C@H](CCC(N)=O)NC(=O)[C@H](CC(=O)O)NC(=O)[C@H](CC(=O)O)NC(=O)[C@H](CSC1CC(=O)N(CCNC(=O)CCCCCN2/C(=C/C=C/C=C/C=C/C3=[N+](CCCCS(=O)(=O)[O-])c4ccc5ccccc5c4C3(C)C)C(C)(C)c3c2ccc2ccccc32)C1=O)NC(=O)[C@H](C)N)C(=O)N[C@@H](CC(=O)O)C(=O)N[C@@H](CC(C)C)C(=O)N[C@@H](CC(C)C)C(=O)N[C@@H](Cc1ccccc1)C(=O)N1CCC[C@H]1C(=O)N[C@H](C(=O)N[C@@H](CC(=O)O)C(=O)N[C@H](C(=O)N[C@@H](CC(C)C)C(=O)N[C@@H](CC(C)C)C(=O)N[C@@H](CC(C)C)C(=O)N[C@@H](CC(=O)O)C(=O)N[C@@H](CC(C)C)C(=O)N[C@@H](CC(C)C)C(=O)N[C@@H](Cc1c[nH]c2ccccc12)C(=O)N[C@@H](C)C(=O)O)[C@@H](C)O)[C@@H](C)O` (stereo partly shown) [pHLIP ICG] (H-AC(X1)DDQNPWRAYLDLLFPTDTLLLDLLWA-OH), the tissue uptake [1] was under 2 %ID/g, the “Effect on the central nervous system (FOB)” value [2] was “had no observed effect on the central nervous system” and the “Cytotoxic effect (cell viability)” value [3] was “did not show any cytotoxic effect at any tested concentration”. It also gave a clearance ([4]; female, B6D2F1, mouse, plasma, iv, mean, read-out: Clearance (Cl) (converted)) of 0.159 mL/min/kg, a half-life ([4]; female, B6D2F1, mouse, plasma, iv, mean, read-out: Elimination half-time (T1/2) (converted)) of 234 min and a Vd ([4]; female, B6D2F1, mouse, plasma, iv, mean, read-out: Volume of distribution (Vz)) of 0.0535 L/kg. For the same compound, the “Systemic exposure quantifiable up to” value ([4]; LC-MS) was “up to 16 hours”, the clearance ([5]; single i.v. 0.064 mg/kg, read-out: Clearance (Cl) (converted)) was 0.193 mL/min/kg and the half-life ([5]; single i.v. 0.064 mg/kg, read-out: Elimination half-time (T1/2) (converted)) was 222 min. It also gave a Vd ([5]; single i.v. 0.064 mg/kg, read-out: Volume of distribution (Vz)) of 0.0616 L/kg, an AUC(0-inf) ([5]; single i.v. bolus 0.064 mg/kg) of 5550 ng·h/mL and a C0 ([5]; single i.v. bolus 0.064 mg/kg, 3 males, read-out: C0 (theoretical concentration at time zero)) of 1410 ng/mL. For the same compound, the AUC(0-t) ([5]; single i.v. bolus 0.064 mg/kg, read-out: AUC0-48hr) was 5450 ng·h/mL, the “Stability (purity) of all formulations” value ([6]; PBS, PBS/5% DMSO, PBS/5% Ethanol, up to 72 hours at room temperature, analytical HPLC) was over 95% and the “Time stable in solution” value ([6]; reconstituted in PBS (0.8 mg/ml), room temperature, analytical HPLC Zorbax SB-C18) was 4 days. For the same compound, the “Fluorescence enhancement when tethered to the membrane vs aqueous solution” value [7] was “about 20 times”.

Reference: PMC7591906, “pHLIP ICG for delineation of tumors and blood flow during fluorescence-guided surgery” (Scientific Reports, 2020)
